Assay results from patent US20030077318A1.

How the values were obtained:
[1] = molecular target: T1, soluble H-2K^b (K^bsol), heterodimer of truncated K^b heavy chain and murine β-2 microglobulin, purified empty from Drosophila cells (murine), P01901; experiment: competitive RIA against [^125I]VSV-8 on K^bsol
T1 chain 1: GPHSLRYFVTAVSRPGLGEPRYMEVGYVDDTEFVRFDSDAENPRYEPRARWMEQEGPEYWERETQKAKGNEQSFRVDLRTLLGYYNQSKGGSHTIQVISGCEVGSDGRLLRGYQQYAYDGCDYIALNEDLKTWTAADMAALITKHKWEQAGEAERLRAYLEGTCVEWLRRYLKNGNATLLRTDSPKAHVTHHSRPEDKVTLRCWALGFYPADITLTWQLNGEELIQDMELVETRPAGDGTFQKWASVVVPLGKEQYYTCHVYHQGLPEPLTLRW
T1 chain 2: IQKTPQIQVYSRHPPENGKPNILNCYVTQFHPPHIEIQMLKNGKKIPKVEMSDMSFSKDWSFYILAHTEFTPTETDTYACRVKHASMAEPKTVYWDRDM

[2] = molecular target: T1, soluble H-2K^b (K^bsol), heterodimer of …; experiment: competitive RIA against [^125I]VSV-8 on K^bsol, P30 gel filtration, 23° C.

## EQLESIINFEKLTEWTSSNVMEER (modifications not checked) [OVA-24]
[1]
  fold lower affinity than OVA-8: > 10000 fold
[2]
  Kd: 71 µM
